According to patent publication US20240168030A1, “DIRECT FLUORESCENT GLYCAN LABELING” (BIO-TECHNE CORPORATION, priority 2019, published 2024):

Assays:
[1] = target: T1, FUT9 (Homo sapiens, UniProt Q9Y231); test: Fluorescent labeling with fluorophore-conjugated fucose by FUT9; assay type: biochemical; details: 0.3 μg FUT9, 0.2 nmol donor, 30 μl, 37° C., FIG. 17
T1 construct: purchased Bio-Techne (Minneapolis, MN)
T1 sequence (Q9Y231 1-359): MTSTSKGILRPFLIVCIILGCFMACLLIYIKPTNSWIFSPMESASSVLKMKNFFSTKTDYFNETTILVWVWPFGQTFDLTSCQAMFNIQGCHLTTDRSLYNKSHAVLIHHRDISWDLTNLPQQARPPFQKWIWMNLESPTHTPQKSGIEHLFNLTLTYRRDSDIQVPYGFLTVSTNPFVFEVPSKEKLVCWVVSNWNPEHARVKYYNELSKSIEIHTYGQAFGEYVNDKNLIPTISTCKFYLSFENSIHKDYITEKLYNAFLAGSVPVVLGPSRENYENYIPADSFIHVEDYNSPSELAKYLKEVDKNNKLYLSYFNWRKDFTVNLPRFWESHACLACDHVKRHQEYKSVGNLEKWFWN
Description: (§1) FIG. 9A-FIG. 9B show exemplary results of probing substrate glycans of various fucosyltransferases on fetuin and asialofetuin. FIG. 9A. Probing substrate glycans of fucosyltransferases with guanosine 5′-diphosphate activated Cy5 conjugated fucose (GDP-Cy5-Fuc). […] FUT9 labeled itself (indicated by an arrow in the gel). FIG. 9B. Tolerance of Alexa-Fluor®555 (555), Alexa-Fluor®488 (488), and Cy5 by the indicated fucosyltransferases. All reactions were incubated at 37° C. for 30 minutes and then separated on SDS-PAGE and imaged with silver staining (upper panels) and fluorescent imager (lower panels). M, molecular marker.
FIG. 10A-FIG. 10D show exemplary results of probing core-6 fucosylation on antibodies by FUT8 incorporation of fluorophores. FIG. 10A. Results of probing substrate glycans of FUT8 (F8) and FUT9 (F9) on Cantuzumab, an anti-Muc1 therapeutic antibody, and NIST reference mAb 8671 using guanosine 5′-diphosphate activated Alexa-Fluor®555 conjugated fucose (GDP-AF555-Fuc) (555), GDP-Cy5-fucose (Cy5), and guanosine 5′-diphosphate activated Alexa-Fluor®488 conjugated fucose (GDP-AF488-Fuc) (488) as donor substrates. Cantuzumab was expressed in FUT8 knockout cells and is devoid of core-6 fucose. Molecular marker (MM) is a prestained Western molecular marker (Bio-Rad Laboratories, Hercules, CA). […] The product of each reaction was separated using SDS-PAGE and imaged with trichloroethanol (TCE) staining (upper panel) and fluorescent imager (lower panel). Labeling on the light chains of the antibodies by Alexa-Fluor®555 is likely the result of non-specific staining due to the use of unpurified GDP-AF555-Fuc that contained free Alexa-Fluor®555. FIG. 10B. […] FIG. 10C. […] FIG. 10D. Schematics of the glycan structures analyzed in FIG. 10B and FIG. 10C.
Mouse IgG (R&D Systems, Minneapolis, MN) was digested with Endo S thoroughly and labeled with 0.3 μg of FUT9 and 0.2 nmol of GDP-Cy5-Fuc in 30 μl at 37° C. for the indicated time points. The glycans were also pretreated with B4GalT2 for 5 minutes at 37° C. and then labeled in the same way. The reactions were separated on 15% SDS PAGE. B4GalT2 pretreatment converted all G1′ to G2′. Maximal labeling on G1′ and G2′ were achieved around 30 minutes. […] The heavy chain (HC) and light chain (LC) were visible in the TCE image. M, Western blot marker (Bio-Rad Laboratories, Hercules, CA).
(§2) For a typical labeling reaction, 1 μg to 5 μg target protein was mixed with 0.2 nmol GDP-f-Fuc and 0.2 μg of a fucosyltransferase in 30 μL buffer of 25 mM Tris pH 7.5, 10 mM MnCl2. The mixture was incubated at 37° C. for 30 minutes. The reaction was then separated by sodium dodecyl sulfate—polyacrylamide gel electrophoresis (SDS-PAGE) and the gel was directly imaged using a fluorescent imager FluorChem M ProteinSimple, Bio-Techne, Minneapolis, MN), followed by imaging with traditional protein imaging methods such as silver staining or trichloroethanol (TCE) staining.
The four enzymes tolerated the three fluorophores to different levels.

[2] = test system: asialofetuin; test: Asialofetuin labeling with variable amounts of ST3Gal1 or ST6Gal1 (FIG. 7); assay type: biochemical, bovine; details: 5 μg asialofetuin, 0.2 nmol CMP-Cy5-SA, 30 μL, 37° C., 30 minutes
[3] = Enzymatic synthesis of Le^x and sLe^x by glycan gel electrophoresis, substrate G2; assay type: biochemical; details: for Relative activity: normalized to FUT6 on sLe^x synthesis
Description: FIG. 21A. Schematic view of the enzymatic steps for Le^X and sLe^X synthesis on the antibody glycan G0. The glycan short names follow that of FIG. 10. FIG. 21B Kinetic comparison of galactosylation on G0 by B4GalT1, sialyation on G2 by ST3Gal4 and ST6Gal1, and fucosylation on A2[3] by FUT7. The reaction time for B4GalT1 was 10 minutes. The reaction time for ST3Gal4, FUT7 and ST6Gal1 was 5 hours. In each case, the labeling enzyme was subject to a 3-fold serial dilution starting from 1 μg each of B4GalT1, FUT7 and ST6Gal1, and 3 μg ST3Gal4. FIG. 21C. […] Reaction time for both cases was 20 minutes. […] FIG. 21D. […] Reaction time for both cases was 20 minutes.
For a typical labeling reaction, 1 μg to 5 μg target protein was mixed with 0.2 nmol fluorophore-conjugated GDP-fucose and 0.2 μg of a fucosyltransferase in 30μL 25 mM Tris pH 7.5, 10 mM MnCl2. The mixture was incubated at 37° C. for 30 minutes. […] To release labeled glycans from a glycoprotein, the sample was first denatured by heating at 95° C. for two minutes in the presence of 0.5% SDS and 80 mM β-mercaptoethanol and then renatured with 1% Triton X-100, and finally treated with PNGase F at 10:1 mass ratio at 37° C. for 20 minutes. To release glycans from antibody, a sample was directly treated with Endo S at 10:1 mass ratio at 37° C. for 20 minutes. All samples were separated by sodium dodecyl sulfate—polyacrylamide gel electrophoresis (SDS-PAGE) at […]. For separating labeled glycoproteins and antibodies, 4-20% gradient SDS gel was used. For separating labeled free glycans, 15% or 17% gel was used. After separation, all gels were imaged using a FluorChem M imager (ProteinSimple, Bio-Techne, Minneapolis, MN). For glycoproteins samples, the gel was also imaged with traditional methods such as silver staining or trichloroethanol (TCE) staining.
For sLe^x synthesis, G0 was first converted to G2 by B4GalT1, then converted to A2[3] by ST3Gal4, and finally converted to A2[3]F2 (carrier of sLe^x) by FUT7 (FIG. 21A). During these steps, different amounts of enzymes, and multiple reaction times were applied to reveal the intermediate products.
Intermediate products are signs for the progress of each enzymatic step.

[4] = test system: fetal bovine fetuin and asialofetuin; test: Labeling of fetuin and asialofetuin by sialyltransferases with CMP-f-SA; assay type: biochemical; details: CMP-f-SA donors, FIG. 2
[5] = test system: fetal bovine fetuin and asialofetuin; test: Labeling of fetuin and asialofetuin by fucosyltransferases with GDP-Cy5-Fuc; assay type: biochemical; details: GDP-Cy5-Fuc donor, FIG. 9A
Description: as §1, §2
The labeled samples were then separated on SDS-PAGE, followed by traditional protein gel imaging and fluorescent imaging.

guanosine 5′-diphosphate activated Cy5 conjugated fucose [GDP-Cy5-Fuc]
Time to maximal labeling of B4GalT2 by FUT9 [1]: 20 min
Time to maximal labeling on G1′ and G2′ by FUT9 ([1]; Endo S digested mouse IgG): around 30 minutes

B1: α-2,6-sialyltransferase 1 (protein, UniProt P15907 1-406, looked up)
Beta-galactoside …: MIHTNLKKKFSCCVLVFLLFAVICVWKEKKKGSYYDSFKLQTKEFQVLKSLGKLAMGSDSQSVSSSSTQDPHRGRQTLGSLRGLAKAKPEASFQVWNKDSSSKNLIPRLQKIWKNYLSMNKYKVSYKGPGPGIKFSAEALRCHLRDHVNVSMVEVTDFPFNTSEWEGYLPKESIRTKAGPWGRCAVVSSAGSLKSSQLGREIDDHDAVLRFNGAPTANFQQDVGTKTTIRLMNSQLVTTEKRFLKDSLYNEGILIVWDPSVYHSDIPKWYQNPDYNFFNNYKTYRKLHPNQPFYILKPQMPWELWDILQEISPEEIQPNPPSSGMLGIIIMMTLCDQVDIYEFLPSKRKTDVCYYYQKFFDSACTMGAYHPLLYEKNLVKHLNQGTDEDIYLLGKATLPGFRTIHC
notes: recombinant human sialyltransferase, N-glycan specific
Enzyme amount achieving maximal labeling of asialofetuin [2]: 0.25 µg
Enzyme amount showing clear visible labeling on asialofetuin [2]: 0.016 µg
Time for the complete conversion of G2 to A2[6] ([3]; FIG. 21B): 5 h
Activity based on reaction completion ([3]; substrate G2, completed product A2[6]): 0.025 pmol/min/µg
Relative activity ([3]; substrate G2, product A2[6]): 0.19
Which of fetuin and asialofetuin the sialyltransferase labeled [4]: only labeled asialofetuin

B2: FUT2: recombinant fucosyltransferase, α1-2 linked fucose (protein, UniProt Q10981 1-343, looked up)
Galactoside …: MLVVQMPFSFPMAHFILFVFTVSTIFHVQQRLAKIQAMWELPVQIPVLASTSKALGPSQLRGMWTINAIGRLGNQMGEYATLYALAKMNGRPAFIPAQMHSTLAPIFRITLPVLHSATASRIPWQNYHLNDWMEEEYRHIPGEYVRFTGYPCSWTFYHHLRQEILQEFTLHDHVREEAQKFLRGLQVNGSRPGTFVGVHVRRGDYVHVMPKVWKGVVADRRYLQQALDWFRARYSSLIFVVTSNGMAWCRENIDTSHGDVVFAGDGIEGSPAKDFALLTQCNHTIMTIGTFGIWAAYLTGGDTIYLANYTLPDSPFLKIFKPEAAFLPEWTGIAADLSPLLKH
Which of fetuin and asialofetuin the fucosyltransferase labeled [5]: labeled asialofetuin

B3: α-2,3-sialyltransferase 4 (protein, UniProt Q11206 1-333, looked up)
CMP-N-acetylneuraminate-beta-g …: MVSKSRWKLLAMLALVLVVMVWYSISREDRYIELFYFPIPEKKEPCLQGEAESKASKLFGNYSRDQPIFLRLEDYFWVKTPSAYELPYGTKGSEDLLLRVLAITSSSIPKNIQSLRCRRCVVVGNGHRLRNSSLGDAINKYDVVIRLNNAPVAGYEGDVGSKTTMRLFYPESAHFDPKVENNPDTLLVLVAFKAMDFHWIETILSDKKRVRKGFWKQPPLIWDVNPKQIRILNPFFMEIAADKLLSLPMQQPRKIKQKPTTGLLAITLALHLCDLVHIAGFGYPDAYNKKQTIHYYEQITLKSMAGSGHNVSQEALAIKRMLEMGAIKNLTSF
notes: as for B1
Time for the complete conversion of G2 to A2[3] ([3]; FIG. 21B): 5 h
Activity based on reaction completion ([3]; substrate G2, completed product A2[3]): 0.0084 pmol/min/µg
Relative activity ([3]; substrate G2, product A2[3]): 0.06
Which of fetuin and asialofetuin the sialyltransferase labeled [4]: only labeled asialofetuin

B4: α-N-acetylgalactosaminide α-2,6-sialyltransferase 2 (protein, UniProt Q9UJ37 1-374, looked up)
Alpha-N-acetylgalactosaminide …: MGLPRGSFFWLLLLLTAACSGLLFALYFSAVQRYPGPAAGARDTTSFEAFFQSKASNSWTGKGQACRHLLHLAIQRHPHFRGLFNLSIPVLLWGDLFTPALWDRLSQHKAPYGWRGLSHQVIASTLSLLNGSESAKLFAPPRDTPPKCIRCAVVGNGGILNGSRQGPNIDAHDYVFRLNGAVIKGFERDVGTKTSFYGFTVNTMKNSLVSYWNLGFTSVPQGQDLQYIFIPSDIRDYVMLRSAILGVPVPEGLDKGDRPHAYFGPEASASKFKLLHPDFISYLTERFLKSKLINTHFGDLYMPSTGALMLLTALHTCDQVSAYGFITSNYWKFSDHYFERKMKPLIFYANHDLSLEAALWRDLHKAGILQLYQR
notes: sialyltransferase, O-GalNAc specific
Which of fetuin and asialofetuin the sialyltransferase labeled [4]: labeled both fetuin and asialofetuin

B5: α-2,3-sialyltransferase 1 (protein, UniProt Q11201 1-340, looked up)
CMP-N-acetylneuraminate-beta-g …: MVTLRKRTLKVLTFLVLFIFLTSFFLNYSHTMVATTWFPKQMVLELSENLKRLIKHRPCTCTHCIGQRKLSAWFDERFNQTMQPLLTAQNALLEDDTYRWWLRLQREKKPNNLNDTIKELFRVVPGNVDPMLEKRSVGCRRCAVVGNSGNLRESSYGPEIDSHDFVLRMNKAPTAGFEADVGTKTTHHLVYPESFRELGDNVSMILVPFKTIDLEWVVSAITTGTISHTYIPVPAKIRVKQDKILIYHPAFIKYVFDNWLQGHGRYPSTGILSVIFSMHVCDEVDLYGFGADSKGNWHHYWENNPSAGAFRKTGVHDADFESNVTATLASINKIRIFKGR
notes: recombinant human sialyltransferase, Core-1 O-glycan specific
Enzyme amount achieving maximal labeling of asialofetuin [2]: 0.5 µg
Enzyme amount showing clear visible labeling on asialofetuin [2]: 0.063 µg
Which of fetuin and asialofetuin the sialyltransferase labeled [4]: only labeled asialofetuin
